Results as given in patent US20110165161A1, “ANTI-EPCAM ANTIBODIES THAT INDUCE APOPTOSIS OF CANCER CELLS AND METHODS USING SAME” (priority 2009, published 2011).
Positions count from the first letter of the chain named.

Assays:
[1] = molecular target: T1, human EpCAM (epithelial cell adhesion/activating molecule) (human, UniProt P16422 24-314); experiment: flow cytometry, CHO/EpCAM cells, 0.1 µg/ml antibody
T1 construct: also called hEpCAM; CHO/EpCAM
T1 sequence: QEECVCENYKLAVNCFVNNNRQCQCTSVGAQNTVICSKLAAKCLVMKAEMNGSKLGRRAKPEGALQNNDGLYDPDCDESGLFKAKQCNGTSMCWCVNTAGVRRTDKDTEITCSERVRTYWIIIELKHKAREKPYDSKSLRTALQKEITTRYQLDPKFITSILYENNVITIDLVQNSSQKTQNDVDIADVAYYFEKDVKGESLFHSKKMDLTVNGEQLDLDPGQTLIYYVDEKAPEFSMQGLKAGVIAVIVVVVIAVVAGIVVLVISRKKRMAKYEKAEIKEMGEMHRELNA
Method: A 300× dilution of human cell hyper-immune serum (HPS 300×) was used as binding positive control for both cell lines here. After 1 hr incubation at 4° C., cells were washed twice with 200 μl FACS buffer (1×PBS containing 1% FBS), stained with 100 μl of 1 μg/ml goat-anti-mouse IgG-PE (Southern Biotech, Cat. No. 1032-09) in FACS buffer and then incubated at 4° C. for 30 min. Cells were washed thrice with FACS buffer and analyzed by flow cytometry (BD LSR, BD Life Sciences).

EGFI-Cr1 T49A = molecular target: T2, EGFI-Cr1 T49A (human, UniProt P16422 24-63); experiment: direct ELISA, coated EGFI-Cr1 fusion, 0.1 µg/ml antibody
T2 construct: not shown: the constant region of human immunoglobulin gamma 1 heavy chain (Cr1) fused at the C-terminus
T2 chain: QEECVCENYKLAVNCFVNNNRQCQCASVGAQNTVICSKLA
Method: (§1) A direct ELISA was used for testing the reactivity of anti-EpCAM antibodies toward variant EpCAM mutants. Briefly, purified EpCAM EGF-1 fusion proteins (WT, Q24A, E25K, E26D, A35T, N37R, F39A, V40E, N41A, N42E, N43A, R44G, Q45A, Q47A or T49A) and irrelevant control (CEA-Cr1) were pre-diluted to 0.5 μg/ml in coating buffer (8.4 g NaHCO₃, 3.4 g Na₂CO₃ in 1 L H₂O, pH 9.5) and aliquoted (100 μl/well) into 96-well plates. […] Plates were then washed 3 times with PBST followed by the addition of the enzyme substrate TMB (BD Biosciences, Cat. No. 555214). […] The optical densities at 450 nm wavelength were measured on an ELISA plate reader.

EGFI-Cr1 Q24A = molecular target: T3, EGFI-Cr1 Q24A (human, UniProt P16422 25-63); experiment: as above
T3 construct: not shown: The fused constant region of human immunoglobulin gamma 1 heavy chain (Cr1)
T3 chain: T2 chain with Q1A, A26T
Method: as §1

EGFI-Cr1 E25K = molecular target: T4, EGFI-Cr1 E25K (human, UniProt P16422 24-63); experiment: as above
T4 construct: not shown: The fused constant region of human immunoglobulin gamma 1 heavy chain (Cr1)
T4 chain: T2 chain with E2K, A26T
Method: as §1

EGFI-Cr1 V40E = molecular target: T5, EGFI-Cr1 V40E (human); experiment: as above
T5 construct: not shown: The fused constant region of human immunoglobulin gamma 1 heavy chain (Cr1)
T5 chain: T2 chain with V17E, A26T
Method: as §1

EGFI-Cr1 N43A = molecular target: T6, EGFI-Cr1 N43A (human, UniProt P16422 24-63); experiment: as above
T6 construct: not shown: the constant region of human immunoglobulin gamma 1 heavy chain (Cr1) fused at the C-terminus
T6 chain: T2 chain with N20A, A26T
Method: as §1

EGFI-Cr1 E26D = molecular target: T7, EGFI-Cr1 E26D (human, UniProt P16422 24-63); experiment: as above
T7 construct: not shown: The fused constant region of human immunoglobulin gamma 1 heavy chain (Cr1)
T7 chain: T2 chain with E3D, A26T
Method: as §1

EGFI-Cr1 Q47A = molecular target: T8, EGFI-Cr1 Q47A (human, UniProt P16422 24-63); experiment: as above
T8 construct: not shown: the constant region of human immunoglobulin gamma 1 heavy chain (Cr1) fused at the C-terminus
T8 chain: T2 chain with Q24A, A26T
Method: as §1

EGFI-Cr1 N41A = molecular target: T9, EGFI-Cr1 N41A (human, UniProt P16422 24-63); experiment: as above
T9 construct: not shown: The fused constant region of human immunoglobulin gamma 1 heavy chain (Cr1)
T9 chain: T2 chain with N18A, A26T
Method: as §1

EGFI-Cr1 F39A = molecular target: T10, EGFI-Cr1 F39A (human, UniProt P16422 24-63); experiment: as above
T10 construct: not shown: The fused constant region of human immunoglobulin gamma 1 heavy chain (Cr1)
T10 chain: T2 chain with F16A, A26T
Method: as §1

EGFI-Cr1 N42E = molecular target: T11, EGFI-Cr1 N42E (human, UniProt P16422 24-63); experiment: as above
T11 construct: not shown: the constant region of human immunoglobulin gamma 1 heavy chain (Cr1) fused at the C-terminus
T11 chain: T2 chain with N19E, A26T
Method: as §1

EGFI-Cr1 N37R = molecular target: T12, EGFI-Cr1 N37R (human); experiment: as above
T12 construct: not shown: The fused constant region of human immunoglobulin gamma 1 heavy chain (Cr1)
T12 chain: T2 chain with N14R, A26T
Method: as §1

[2] = molecular target: T13, EGFI-Cr1 wild type (first EGF-like repeat of human EpCAM fused to the constant region of human immunoglobulin … (human, UniProt P01857-1 99-330 = IgG part)); experiment: as above
T13 construct: cDNA covered aa 1-63; Expressed in COS-7 cells; also called WT; EpCAM EGF-1 fusion protein WT
Method: as §1

EGFI-Cr1 A35T = molecular target: T14, EGFI-Cr1 A35T (human, UniProt P16422 24-63); experiment: as above
T14 construct: not shown: The fused constant region of human immunoglobulin gamma 1 heavy chain (Cr1)
T14 chain: T2 chain with A12T, A26T
Method: as §1

EGFI-Cr1 R44G = molecular target: T15, EGFI-Cr1 R44G (human, UniProt P16422 24-63); experiment: as above
T15 construct: not shown: the constant region of human immunoglobulin gamma 1 heavy chain (Cr1) fused at the C-terminus
T15 chain: T2 chain with R21G, A26T
Method: as §1

EGFI-Cr1 Q45A = molecular target: T16, EGFI-Cr1 Q45A (human, UniProt P16422 24-63); experiment: as above
T16 construct: not shown: the constant region of human immunoglobulin gamma 1 heavy chain (Cr1) fused at the C-terminus
T16 chain: T2 chain with Q22A, A26T
Method: as §1

[3] = molecular target: T1, human EpCAM (epithelial cell …); experiment: cell-based or functional assay
[4] = molecular target: T1, human EpCAM (epithelial cell …); experiment: cell-based or functional assay; remark: listed apart in the source

MFI [1]: 1740 MFI | relative binding activity (% of WT) (EGFI-Cr1 T49A): 63% | relative binding activity (% of WT) (EGFI-Cr1 Q24A): 41% | relative binding activity (% of WT) (EGFI-Cr1 E25K): 2% | relative binding activity (% of WT) (EGFI-Cr1 V40E): 1% | relative binding activity (% of WT) (EGFI-Cr1 N43A): 57% | relative binding activity (% of WT) (EGFI-Cr1 E26D): 52% | relative binding activity (% of WT) (EGFI-Cr1 Q47A): 23% | relative binding activity (% of WT) (EGFI-Cr1 N41A): 0% | relative binding activity (% of WT) (EGFI-Cr1 F39A): 11% | relative binding activity (% of WT) (EGFI-Cr1 N42E): 82% | relative binding activity (% of WT) (EGFI-Cr1 N37R): 64% | relative binding activity (% of WT) [2]: 100% | relative binding activity (% of WT) (EGFI-Cr1 A35T): 27% | relative binding activity (% of WT) (EGFI-Cr1 R44G): 1% | relative binding activity (% of WT) (EGFI-Cr1 Q45A): 4% | % of Annexin V + PI staining (untreated background subtracted), NCI-H358, 10 µg/ml mAb, Exp1 [3]: 43% | % of Annexin V + PI staining (untreated background subtracted), NCI-H358, 10 µg/ml mAb, Exp2 [3]: 41% | % of Annexin V + PI staining (untreated background subtracted), NCI-H358, 10 µg/ml mAb, Exp3 [3]: 45% | % of Annexin V + PI staining (untreated background subtracted), NCI-H358, 10 µg/ml mAb, Exp4 [3]: 46% | % of Annexin V + PI staining (untreated background subtracted), NCI-H358, 10 µg/ml mAb, Exp5 [3]: 43% | % Annexin V/PI-positive cells, DLD-1, 1.0 µg/ml mAb [4]: 31% | % Annexin V/PI-positive cells, DLD-1, 3.0 µg/ml mAb [4]: 51% | % Annexin V/PI-positive cells, DLD-1, 10 µg/ml mAb [4]: 62% | % Annexin V/PI-positive cells, FaDu, 1.0 µg/ml mAb [4]: 37% | % Annexin V/PI-positive cells, FaDu, 3.0 µg/ml mAb [4]: 43% | % Annexin V/PI-positive cells, FaDu, 10 µg/ml mAb [4]: 46% | % Annexin V/PI-positive cells, LNCaP, 1.0 µg/ml mAb [4]: 49% | % Annexin V/PI-positive cells, LNCaP, 3.0 µg/ml mAb [4]: 52% | % Annexin V/PI-positive cells, LNCaP, 10 µg/ml mAb [4]: 50% | % Annexin V/PI-positive cells, NCI-H520, 1.0 µg/ml mAb [4]: 24% | % Annexin V/PI-positive cells, NCI-H520, 3.0 µg/ml mAb [4]: 30% | % Annexin V/PI-positive cells, NCI-H520, 10 µg/ml mAb [4]: 32% | % Annexin V/PI-positive cells, NCI-N87, 1.0 µg/ml mAb [4]: 49% | % Annexin V/PI-positive cells, NCI-N87, 3.0 µg/ml mAb [4]: 52% | % Annexin V/PI-positive cells, NCI-N87, 10 µg/ml mAb [4]: 55% | % Annexin V/PI-positive cells, NIH:OVCAR-3, 1.0 µg/ml mAb [4]: 40% | % Annexin V/PI-positive cells, NIH:OVCAR-3, 3.0 µg/ml mAb [4]: 51% | % Annexin V/PI-positive cells, NIH:OVCAR-3, 10 µg/ml mAb [4]: 56% | % Annexin V/PI-positive cells, T-47D, 1.0 µg/ml mAb [4]: 35% | % Annexin V/PI-positive cells, T-47D, 3.0 µg/ml mAb [4]: 44% | % Annexin V/PI-positive cells, T-47D, 10 µg/ml mAb [4]: 45%
B1: murine monoclonal antibody 4D2 (antibody, mouse IgG1, V domains shown)
VH: EVQLVESGGDLVKPGGSLKLSCAASGFAFDSYGMSWVRQTPGKRLEWVATISSGGYYTYYQDSVKGRFTTSRDNAKNTLDLQMSSLKSEDSAIYYCARRGNYDVDYYAMDYWGQGTSVTVSS
VL: DVVMTQTPLSLPVSLGDQASISCRSSQSLVHSNGNTYLHWYLQKPGQSPKLLIYKVSNRFSGVPDRFSGSGSGTDFTLRISRVEAEDLGVYFCSQSTHVPPWTFGGGTKLEIKR
notes: Mouse IgG1, kappa, from hybridoma; also called m338-4D2.20
